One block for each binder: values may come before it. Ends that are not written are not given here.
Tests used:
Aβ1-43 peptide = molecular target: T1, Aβ1-43 peptide (human); assay: SPR competition: soluble peptide against immobilized Aβ1-40, Fab at 50 nM
T1 construct: also called 1-43 (WT)
Experimental: (§1) To determine the epitope on Aβ polypeptide that is recognized by antibody 9TL, Surface Plasmon Resonance (SPR, Biacore 3000) binding analysis was used. Aβ₁₋₄₀ polypeptide coupled to biotin (Global Peptide Services, CO) was immobilized on a streptavidin-coated chip (SA chip). The binding of Aβ antibodies Fab fragments (at 50 nM) to the immobilized Aβ₁₋₄₀ in the absence or presence of different soluble fragments of the Aβ peptide (at 10 μM, from American Peptide Company Inc., CA). Amino acid sequences of Aβ₁₋₄₀, Aβ₁₋₄₂, and Aβ₁₋₄₃ are shown in below in Table 4. The Aβ peptides which displaced binding of antibody 9TL Fab fragment to Aβ₁₋₄₀ were Aβ₂₈₋₄₀, Aβ₁₋₄₀, Aβ₃₃₋₄₀, and Aβ₁₇₋₄₀, respectively (FIG. 2). Thus, antibody 9TL binds to a C-terminal peptide (33-40) of Aβ₁₋₄₀.

Aβ28-42 peptide = molecular target: T2, Aβ28-42 peptide (human); assay: as above
T2 peptide: KGAIIGLMVGGVVIA
Experimental: as §1

human C1q = molecular target: T3, human C1q (human, UniProt P02745 23-245; P02746 28-253; P02747 29-245); assay: SPR, C1q on CM5 chip, antibody flowed
T3 construct: also called hC1q; human complement
T3 sequence (P02745 23-245 limits assumed, chain 1 of 3): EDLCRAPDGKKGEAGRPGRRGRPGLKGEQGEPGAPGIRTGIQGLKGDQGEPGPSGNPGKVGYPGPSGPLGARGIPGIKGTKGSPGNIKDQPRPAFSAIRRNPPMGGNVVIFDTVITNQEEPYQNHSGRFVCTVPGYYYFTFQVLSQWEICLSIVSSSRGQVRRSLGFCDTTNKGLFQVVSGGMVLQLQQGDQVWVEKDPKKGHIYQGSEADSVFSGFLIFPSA
T3 sequence (P02746 28-253 limits assumed, chain 2 of 3): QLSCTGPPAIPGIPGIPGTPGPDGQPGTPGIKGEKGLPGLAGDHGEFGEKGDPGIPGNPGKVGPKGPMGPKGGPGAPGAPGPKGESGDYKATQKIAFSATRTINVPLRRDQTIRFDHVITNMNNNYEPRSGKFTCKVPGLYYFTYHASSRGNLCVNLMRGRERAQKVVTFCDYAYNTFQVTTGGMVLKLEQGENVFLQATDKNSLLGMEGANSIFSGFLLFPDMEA
T3 sequence (P02747 29-245 limits assumed, chain 3 of 3): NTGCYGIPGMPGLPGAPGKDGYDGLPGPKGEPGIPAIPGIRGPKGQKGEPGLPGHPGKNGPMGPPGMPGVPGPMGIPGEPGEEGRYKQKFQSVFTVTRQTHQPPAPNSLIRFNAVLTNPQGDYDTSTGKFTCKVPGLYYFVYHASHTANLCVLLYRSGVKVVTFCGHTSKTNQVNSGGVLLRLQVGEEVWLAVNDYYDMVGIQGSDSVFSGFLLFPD
Experimental: (§2) Binding affinity of the antibody Fc regions to Fcγ receptors or complement were measured using BIAcore as described above. Briefly, purified human or murine Fcγ receptors (from R&D Systems) and human C1q (from Quidel) were immobilized on BIAcore CM5 chip by amine chemistry. Serial dilutions of monoclonal antibodies (ranging from 2 nM to the maximum concentration as indicated in Tables 16 and 17) were injected. HBS-EP (0.01M HEPES, pH 7.4, 0.15 M NaCl, 3 mM EDTA, 0.005% Surfactant P20) as running and sample buffer. Binding data were analyzed using 1:1 langmuir interaction model for high affinity interactions, or steady state affinity model for low affinity interactions.

murine FcγRIII = molecular target: T4, murine FcγRIII (murine, UniProt P08508 31-215, limits assumed); assay: SPR, receptor on CM5 chip, antibody flowed
T4 construct: Bought; also called mFcγRIII
T4 sequence (looked up): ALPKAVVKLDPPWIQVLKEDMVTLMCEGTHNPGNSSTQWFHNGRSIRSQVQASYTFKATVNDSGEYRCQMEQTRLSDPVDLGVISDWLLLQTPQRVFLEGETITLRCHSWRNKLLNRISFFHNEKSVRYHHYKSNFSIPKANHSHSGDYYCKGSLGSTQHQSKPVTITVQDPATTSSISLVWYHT
Experimental: as §2

human FcγRI = molecular target: T5, human FcγRI (human, UniProt P12314 16-288, limits assumed); assay: SPR, receptor on CM5 chip, antibody flowed
T5 construct: Bought
T5 sequence (P12314 16-288 limits assumed): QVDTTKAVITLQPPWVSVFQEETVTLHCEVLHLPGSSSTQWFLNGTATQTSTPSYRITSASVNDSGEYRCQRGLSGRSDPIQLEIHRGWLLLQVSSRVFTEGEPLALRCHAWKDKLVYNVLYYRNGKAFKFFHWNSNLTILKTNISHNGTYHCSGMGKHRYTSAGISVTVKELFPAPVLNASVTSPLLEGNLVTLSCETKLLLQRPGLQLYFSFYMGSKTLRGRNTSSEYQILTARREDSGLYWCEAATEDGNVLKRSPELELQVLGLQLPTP
Experimental: as §2

murine FcγRI = molecular target: T6, murine FcγRI (murine, UniProt P26151 25-297, limits assumed); assay: SPR, receptor on CM5 chip, antibody flowed
T6 construct: Bought; also called mFcγRI
T6 sequence (looked up): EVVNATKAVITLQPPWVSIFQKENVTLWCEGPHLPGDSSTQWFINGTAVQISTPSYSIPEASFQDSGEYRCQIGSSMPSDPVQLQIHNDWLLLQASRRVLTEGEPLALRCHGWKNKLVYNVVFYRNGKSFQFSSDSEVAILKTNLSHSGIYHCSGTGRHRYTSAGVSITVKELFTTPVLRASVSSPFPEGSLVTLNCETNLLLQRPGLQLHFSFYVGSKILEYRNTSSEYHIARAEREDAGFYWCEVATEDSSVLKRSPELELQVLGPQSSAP
Experimental: as §2

human FcγRIIb/c = molecular target: T7, human FcγRIIb/c (human, UniProt P31994 46-217, limits assumed); assay: SPR, receptor on CM5 chip, antibody flowed
T7 construct: Bought
T7 sequence (looked up): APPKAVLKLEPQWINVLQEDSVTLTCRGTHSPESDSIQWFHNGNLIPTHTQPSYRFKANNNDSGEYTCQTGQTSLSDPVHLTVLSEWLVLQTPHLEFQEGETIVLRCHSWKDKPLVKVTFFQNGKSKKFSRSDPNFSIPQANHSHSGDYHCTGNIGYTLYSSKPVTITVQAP
Experimental: as §2

murine FcγRIIb = molecular target: T8, murine FcγRIIb (murine, UniProt P08101 40-217, limits assumed); assay: SPR, receptor on CM5 chip, antibody flowed
T8 construct: Bought; also called mFcγRIIb
T8 sequence (looked up): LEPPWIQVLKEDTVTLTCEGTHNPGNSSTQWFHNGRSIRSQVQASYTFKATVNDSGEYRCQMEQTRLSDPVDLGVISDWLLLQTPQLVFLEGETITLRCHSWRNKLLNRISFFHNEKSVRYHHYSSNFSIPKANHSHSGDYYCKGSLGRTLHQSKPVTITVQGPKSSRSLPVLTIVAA
Experimental: as §2

[1] = molecular target: T9, biotinylated Aβ 20-34 peptide with C-terminal glycine (human, also: biotinylated, position not given here); assay: ELISA: biotinylated peptide on streptavidin plate, goat anti-human kappa HRP, absorbance at 450 nm
T9 peptide: FAEDVGSNKGAIIGLG

[2] = molecular target: T10, biotinylated Aβ 22-36 peptide with C-terminal glycine (human, also: biotinylated, position not given here); assay: as above
T10 peptide: EDVGSNKGAIIGLMVG

[3] = molecular target: T11, biotinylated Aβ 23-37 peptide with C-terminal glycine (human, also: biotinylated, position not given here); assay: as above
T11 peptide: DVGSNKGAIIGLMVGG

[4] = molecular target: T12, biotinylated Aβ 25-39 peptide with C-terminal glycine (human, also: biotinylated, position not given here); assay: as above
T12 peptide: GSNKGAIIGLMVGGVG

[5] = molecular target: T13, biotinylated Aβ 21-35 peptide with C-terminal glycine (human, also: biotinylated, position not given here); assay: as above
T13 peptide: AEDVGSNKGAIIGLMG

[6] = molecular target: T14, biotinylated Aβ 24-38 peptide with C-terminal glycine (human, also: biotinylated, position not given here); assay: as above
T14 peptide: VGSNKGAIIGLMVGGG

T1 sequence (peptide, as listed by the source): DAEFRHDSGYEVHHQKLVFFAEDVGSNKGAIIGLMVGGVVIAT

binding result (Aβ1-43 peptide): no binding (tested: 10 µM peptide) | binding result (Aβ28-42 peptide): no binding (tested: 10 µM peptide)
B1: antibody 9TL Fab fragment (Fab, V domains shown)
VH: QVQLVQSGAEVKKPGASVKVSCKASGYYTEAYYIHWVRQAPGQGLEWMGRIDPATGNTKYAPRLQDRVTMTRDTSTSTVYMELSSLRSEDTAVYYCASLYSLPVYWGQGTTVTVSS
VL: DVVMTQSPLSLPVTLGQPASISCKSSQSLLYSDAKTYLNWFQQRPGQSPRRLIYQISRLDPGVPDRFSGSGSGTDFTLKISRVEAEDVGVYYCLQGTHYPVLFGQGTRLEIKR
notes: Fab expressed in E. coli

binding result (human C1q): no binding (tested: 30,000 nM) | binding result (murine FcγRIII): no binding (tested: 30,000 nM) | binding result (human FcγRI): no binding (tested: 30 µM) | binding result (murine FcγRI): no binding (tested: 30,000 nM) | Kd (human FcγRIIb/c): 61 µM | binding result (murine FcγRIIb): no binding (tested: 30,000 nM)
B2: antibody 9TL (antibody, human IgG2, kappa)
heavy: QVQLVQSGAEVKKPGASVKVSCKASGYYTEAYYIHWVRQAPGQGLEWMGRIDPATGNTKYAPRLQDRVTMTRDTSTSTVYMELSSLRSEDTAVYYCASLYSLPVYWGQGTTVTVSSASTKGPSVFPLAPCSRSTSESTAALGCLVKDYFPEPVTVSWNSGALTSGVHTFPAVLQSSGLYSLSSVVTVPSSNFGTQTYTCNVDHKPSNTKVDKTVERKCCVECPPCPAPPVAGPSVFLFPPKPKDTLMISRTPEVTCVVVDVSHEDPEVQFNWYVDGVEVHNAKTKPREEQFNSTFRVVSVLTVVHQDWLNGKEYKCKVSNKGLPSSIEKTISKTKGQPREPQVYTLPPSREEMTKNQVSLTCLVKGFYPSDIAVEWESNGQPENNYKTTPPMLDSDGSFFLYSKLTVDKSRWQQGNVFSCSVMHEALHNHYTQKSLSLSPGK
light: DVVMTQSPLSLPVTLGQPASISCKSSQSLLYSDAKTYLNWFQQRPGQSPRRLIYQISRLDPGVPDRFSGSGSGTDFTLKISRVEAEDVGVYYCLQGTHYPVLFGQGTRLEIKRTVAAPSVFIFPPSDEQLKSGTASVVCLLNNFYPREAKVQWKVDNALQSGNSQESVTEQDSKDSTYSLSSTLTLSKADYEKHKVYACEVTHQGLSSPVTKSFNRGEC
notes: Full antibody; human IgG2a constant region with A330P331 to S330S331, human kappa; transient expression in HEK 293 cells; also called 9TL mAb; 9TL(hIgG2Δa); copies: 2 + 2

absorbance at 450 nm [1]: > 3 | absorbance at 450 nm [2]: > 3 | absorbance at 450 nm [3]: 2.3 | absorbance at 450 nm [4]: 1.5 | absorbance at 450 nm [5]: > 3 | absorbance at 450 nm [6]: 2.1
B3: antibody 6G (antibody, human IgG2, kappa, V domains shown)
VH: QVQLVQSGAEVKKPGASVKVSCKASGYTFTTYAIHWVRQAPGQGLEWMGFTSPYSGVSNYNQKFKGRVTMTRDTSTSTVYMELSSLRSEDTAVYYCARFDNYDRGYVRDYWGQGTLVTVSS
VL: DIVMTQSPDSLAVSLGERATINCRASESVDNDRISFLNWYQQKPGQPPKLLIYAATKQGTGVPDRFSGSGSGTDFTLTISSLQAEDVAVYYCQQSKEFPWSFGGGTKVEIKR
notes: Full antibody with modified human IgG2a (A330P331 to S330S331) and human kappa

— patent US20060057701A1 (RINAT NEUROSCIENCE, published 2006)
